This assay addresses T1, Soluble CTLA-4-Ig (human, UniProt P16410 36-161, FITC-conjugated in the two-colour FACS assays; unlabelled and detected with FITC goat anti-human IgG in the concentration-dependent assay).
T1 construct: extracellular domain; Bought from R&D Systems; also called sCTLA-4-Ig; CTLA-4-Ig Fc; not shown: Fc portion of human IgG1
Nature of the assay: two-colour FACS profile on transfected cells; score of preference for CTLA-4-Ig over CD28-Ig vs WT hB7-1.

Positions count from the first letter of the chain named.

T1 sequence (P16410 36-161): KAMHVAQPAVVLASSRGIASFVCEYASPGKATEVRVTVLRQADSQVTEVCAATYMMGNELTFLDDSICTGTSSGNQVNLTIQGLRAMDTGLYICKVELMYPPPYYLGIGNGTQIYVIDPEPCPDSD

B1: Round 2 CTLA4BP 2x1-b12 (ligand)
chain: VIHMTKEVKEVATLSCGHNVSVEELAQTRIYWQKEKKMVLTMMSGDMNIWPEYKNRTIFDITNNLSIVILALRPSDEGTYECVALKYEKDAFKQEHLAEVTLSVKADFPTPSISDFEIPPSNIRRIICSTSGGFPEPRLAWMEDGEELNAINTTVSQDPETELYTVSSKLDFNMTANHSFMCLIKYGHLRVNQTFNWNTPKQEHFPDNLLPSWAITLISVNGIFVICCLTYCFAPRCRERRRNERLRRESVCPV
As for B1, the “Binding Score” value is 1.

B2: Round 2 CTLA4BP 2x1-h12 (ligand)
chain: VIHVTKEVKEVATLSCGLNVSVEELAQTRIHWQKEKKMVLTMMSGDMNIWPEYKNRTIFDITNNLSIVILALRPSDEGTYECVVLKYEKDAFKREHLAEVMLSVKADFPTPSITDFEIPPSNIRRIICSTSGGFPEPHLSWLENGEELNAINTTVSQDPGTELYTVSSKLDFNMTTNHSFMCLIKYGHLRVNQTFNWNTPKQEHFPDNLLPSWAITLISANGIFVICCLTYCFAPRCRERKSNERLRRESVCPV
In the case of B2, the “Binding Score” value was 1.

B3: Round 2 CTLA4BP 5x4-a1 (ligand)
chain: VIHVTKEVKEVATLSCGHNVSVEELAQTRIYWQKEKKMVLTMMSGDMNIWPEHKNRTIFDITNNLSIVILALRPSDEGTYECVVLKYEKDAFKREHLAEVTLSVKADFPTPSITDFEIPTSNIRRIICSTSGGFPEPHLSWLENGEELNAINTTVSQDPGTELYTVSSKLDFNMTTNRSFVCLIKYGHLRVNQTFNWNTPKQEHFPDNLLPSWAITLISVNGIFVICCLTYCFAPRCRERRRNERLRRESVRPV
Consider B3, for which the “Binding Score” value was 0.

B4: Round 2 CTLA4BP 5x5-h12 (ligand)
chain: B3 chain with E7K, Y31H, H53Y, T101M, T114S, T120P, N177D, E244G
As for B4, the “Binding Score” value came out at 1.

B5: Round 2 CTLA4BP 5x3-c4 (ligand)
chain: B1 chain with M4V, A84V, Q94R, V155A, A176T, H178R, M181V, L210F, C252R
For B5, the “Binding Score” value came to 1.

B6: Round 2 CTLA4BP 5x2-e12 (ligand)
chain: B3 chain with Y31H, D46G, H53Y, T114S, N152S, T165A, P200T
Take B6: the “Binding Score” value stood at 0.

B7: Round 2 CTLA4BP 5x2-d7 (ligand)
chain: B2 chain with V4M, T114S, G160E, E162G, A220V, K241R, S242R, C252R
B7: the “Binding Score” value was 1.

B8: Round 2 CTLA4BP 2x1-f10 (ligand)
chain: B1 chain with M4V, Y31H, A84V, Q94R, T101M, S114T, E160G, T165A, A176T, F224S
On to B8, for which the “Binding Score” value was 1.

B9: Round 2 CTLA4BP 5x4-h1 (ligand)
chain: VIHVTKEVKEVATLSCGHNVSVEELAQTRIHWQKEKKMVLTMMSGDMNIWPEYKNRTIFDITNNLSIVILALRPSDEGTYECVVLKYEKDAFKRKHLAEVMLSVKADFPTPSISDFEIPTSNIRRIICSTSGGFPEPHLFWLENGEELNAINTTASQDPETELYTVSSKLDFNMTTNRSFVCLIKYGHLRVNQTFNWNTPKQEHFPNNLLPSWAITLISVNGIFVICCLTYCFAPRCRERRRNETLRRESVHPV
Consider B9, for which the “Binding Score” value amounted to 2.

B10: Round 2 CTLA4BP 2x1-c4 (ligand)
chain: B2 chain with S15P, L18H, S140F, T165A, S179N, A220V, K241R, S242R, C252R
Take B10: the “Binding Score” value was found to be 1.

B11: Round 2 CTLA4BP 5x3-e8 (ligand)
chain: B3 chain with H53Y, K86E, T114S, S140F, G160E, T176A, R178H, R236G, R252C
Take B11: the “Binding Score” value came out at 1.

B12: Round 2 CTLA4BP 5x3-c3 (ligand)
chain: B3 chain with V4M, H18P, H53Y, T114S, R178H, V181M, Y231H, R252C
Consider B12, for which the “Binding Score” value came out at 1.

B13: Round 2 CTLA4BP 5x2-b7 (ligand)
chain: B3 chain with Y31H, H53Y, T120P, T176A, R178H, V220A
Regarding B13, the “Binding Score” value stood at 1.

B14: Round 2 CTLA4BP 5x1-f1 (ligand)
chain: B3 chain with H18L, T120P, S140F, V155A, G160E, T176A, R178H, R245T
Turning to B14, the “Binding Score” value was 1.

B15: Round 2 CTLA4BP 5x1-d7 (ligand)
chain: VIHVTKEVKEVATLSCGHNVPVEELAQTRIYWQKEKKMVLTMMSGDMNIWPEYKNRTIFDITNNLSIVILALRPSDEGTYGCVVLEYEKDAFKREHLAEVMLSVKADFPTPSITDLEIPPSNIRRIICSTSGGFPEPHLFWLENGEELNAINTTASQDPETELYAVSSKLDFNMTTNHSFMCLIKYGHLRVNQTFNWNTPKQEHFPDNLLPSWAITLISANGIFVICCLTYCFAPRCRERRRNERLRRESVHPV
B15: the “Binding Score” value stood at 1.

B16: Round 2 CTLA4BP 2x2-f12 (ligand)
chain: B15 chain with P21S, Y31H, T114S, L116F, F140S, A155V, V191A, A220V, H252R
With B16, the “Binding Score” value came to 1.

B17: Round 2 CTLA4BP 5x6-f6 (ligand)
chain: B3 chain with R29P, H53Y, T101M, T120P, S140F, G160E, V220A, C232R, R252C
B17: the “Binding Score” value was determined as 1.

B18: Round 2 CTLA4BP 2x4-h11 (ligand)
chain: B3 chain with H53Y, K86E, T101M, T114S, T120P, T165A, R178H, V181M, T230A, E239G
Turning to B18, the “Binding Score” value is 0.

B19: Round 2 CTLA4BP 2x1-g8 (ligand)
chain: B3 chain with Y31H, H53Y, I67V, T120P, R241K, R242S
On to B19, for which the “Binding Score” value came out at 1.

B20: Round 2 CTLA4BP 2x2-f1 (ligand)
chain: B9 chain with P74L, K95E, M101T, N207D, T245R, H252R
B20: the “Binding Score” value was determined as 1.

B21: Round 2 CTLA4BP 5x5-c10 (ligand)
chain: B15 chain with P21S, G81E, M101T, L116F, N152S, A155V, P200T, A220V
For B21, the “Binding Score” value was 1.

B22: Round 2 CTLA4BP 5x2-f3 (ligand)
chain: B3 chain with S44P, H53Y, K86R, T114S, V155A, G160E, V220A, Y231H, R241K, R242S
As to B22, the “Binding Score” value was found to be 0.

B23: Round 2 CTLA4BP 5x2-h11 (ligand)
chain: VIHVTKKVKEVATLSCGHNVSVEELAQTRIYWQKGKKMVLTMMSGDMNIWPECKNRTIFDITNNLSIVILALRPSDEGTYECAVLKYEKDAFKREHLAEVTLSVKADFPTPSISDFEIPTSNIRRIICSTSGGFPEPHLFWLENGEELNAINTTASQDPETELYAVSSKLDFNMTTNHSFMCLIKYGHLRVNQTFNWNTPKQEHFPDNLLPSWAITLISVNGIFVICCLTYCFAPRCRERKSNERLRRESVRPV
Regarding B23, the “Binding Score” value stood at 1.

These data come from US20050154189A1 (MAXYGEN, published 2005).
